Source: IntAct's records for PubMed 15147268

B1: Suppressor of kinetochore protein 1 (Schizosaccharomyces pombe (strain ATCC 38366 / 972)), Q9Y709 (parent)
chain: MSKIKLISSDNEEFVVDQLIAERSMLIKNMLEDVGEINVPIPLPNVSSNVLRKVLEWCEHHKNDLYSGTEEESDIRLKKSTDIDEWDRKFMAVDQEMLFEIVLASNYLDIKPLLDTGCKTVANMIRGKSPEDIRKTFNIPNDFTPEEEEQIRKENEWAEDR
partner: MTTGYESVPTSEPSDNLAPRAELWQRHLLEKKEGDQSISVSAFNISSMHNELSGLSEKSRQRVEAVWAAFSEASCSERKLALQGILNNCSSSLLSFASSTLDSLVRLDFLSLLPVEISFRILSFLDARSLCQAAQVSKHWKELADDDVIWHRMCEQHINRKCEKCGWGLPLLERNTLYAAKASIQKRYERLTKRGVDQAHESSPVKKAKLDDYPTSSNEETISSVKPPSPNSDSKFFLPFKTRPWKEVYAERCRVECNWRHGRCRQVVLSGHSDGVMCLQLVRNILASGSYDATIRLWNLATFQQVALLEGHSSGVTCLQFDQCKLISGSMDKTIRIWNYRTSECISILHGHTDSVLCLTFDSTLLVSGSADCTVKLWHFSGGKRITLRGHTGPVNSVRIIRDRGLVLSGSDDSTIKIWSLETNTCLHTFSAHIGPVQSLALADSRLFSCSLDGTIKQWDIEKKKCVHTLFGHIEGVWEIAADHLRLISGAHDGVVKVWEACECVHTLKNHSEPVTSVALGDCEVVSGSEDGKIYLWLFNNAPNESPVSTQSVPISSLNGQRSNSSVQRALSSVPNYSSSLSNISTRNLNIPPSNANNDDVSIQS
B2: Suppressor of kinetochore protein 1 (Schizosaccharomyces pombe (strain ATCC 38366 / 972)), Q9Y709 (parent)
chain: B1 chain
partner: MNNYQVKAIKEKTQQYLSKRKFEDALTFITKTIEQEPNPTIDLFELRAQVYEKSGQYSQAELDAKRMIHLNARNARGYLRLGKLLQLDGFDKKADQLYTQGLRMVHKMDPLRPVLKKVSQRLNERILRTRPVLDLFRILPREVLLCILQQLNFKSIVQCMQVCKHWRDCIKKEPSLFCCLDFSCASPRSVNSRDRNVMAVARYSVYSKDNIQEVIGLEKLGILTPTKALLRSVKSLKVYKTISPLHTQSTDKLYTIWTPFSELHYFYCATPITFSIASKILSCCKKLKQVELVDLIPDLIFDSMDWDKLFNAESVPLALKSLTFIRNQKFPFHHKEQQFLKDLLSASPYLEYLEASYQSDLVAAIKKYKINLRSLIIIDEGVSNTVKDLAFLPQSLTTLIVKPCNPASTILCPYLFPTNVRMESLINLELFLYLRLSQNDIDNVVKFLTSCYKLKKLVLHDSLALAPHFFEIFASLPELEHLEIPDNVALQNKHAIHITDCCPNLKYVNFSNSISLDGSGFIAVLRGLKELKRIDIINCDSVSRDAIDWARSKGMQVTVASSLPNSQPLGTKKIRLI
B3: Suppressor of kinetochore protein 1 (Schizosaccharomyces pombe (strain ATCC 38366 / 972)), Q9Y709 (parent)
chain: B1 chain
partner: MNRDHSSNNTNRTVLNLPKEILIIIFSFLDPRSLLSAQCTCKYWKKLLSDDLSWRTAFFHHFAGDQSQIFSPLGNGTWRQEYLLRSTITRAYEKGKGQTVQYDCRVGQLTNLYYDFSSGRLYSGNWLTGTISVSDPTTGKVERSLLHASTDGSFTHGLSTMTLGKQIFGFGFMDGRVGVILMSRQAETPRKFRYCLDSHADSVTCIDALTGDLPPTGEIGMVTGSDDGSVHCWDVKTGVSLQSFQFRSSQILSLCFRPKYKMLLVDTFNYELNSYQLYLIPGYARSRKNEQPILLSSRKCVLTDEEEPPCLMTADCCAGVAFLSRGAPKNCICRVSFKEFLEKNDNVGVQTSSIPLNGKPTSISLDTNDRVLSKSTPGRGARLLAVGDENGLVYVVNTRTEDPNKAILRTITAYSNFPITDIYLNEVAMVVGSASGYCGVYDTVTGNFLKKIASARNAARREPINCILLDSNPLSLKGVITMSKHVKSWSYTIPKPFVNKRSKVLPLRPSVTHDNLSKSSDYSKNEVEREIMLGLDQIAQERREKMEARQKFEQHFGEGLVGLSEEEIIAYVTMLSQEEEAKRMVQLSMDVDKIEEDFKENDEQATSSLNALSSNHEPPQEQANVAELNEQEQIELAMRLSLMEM

Variants of: B1
Settings: with pof1_schpo pof1, P87053

| Variant | effect of a mutation on the interaction |
| --- | --- |
| I110T | decreasing interaction |

Variants of: B2
Settings: with pof3_schpo pof3, O74991

| Variant | effect of a mutation on the interaction |
| --- | --- |
| I110T | decreasing interaction |

Variants of: B3
Settings: with pof10_schpo pof10, Q9P7W4

| Variant | effect of a mutation on the interaction |
| --- | --- |
| I110T | decreasing interaction |
